From PMC6127294, “Jungle Express is a versatile repressor system for tight transcriptional control” (Nature Communications, 2018)

Molecular target: the molecule itself
Test: crystal structure; EilR (selenomethionine-labeled) in complex with the duplexed eilOc operator oligonucleotide, 2:1 protein:DNA molar ratio; 0.1 M Li2SO4, 0.1 M MgCl2, 0.1 M HEPES pH 7.5, 20% PEG 3350, 10% hexanediol

B1: EilR (natural protein, Enterobacter lignolyticus)
chain: MGYLNREERRETIMQAAMRVALDQGFTGMTVRNIATAAGVAAGQVHHHFTSSGELKSQAFIRVIREMMDLQRLSRTAGWREQLFSALGSEDGRLEPYIRLWRQAQLLADSDPEIKSAYLLTMNLWHDEAVRIIRAGHAAGEFTLRDSAENIAWRLISLVCGLDGIYVLGMPEVDDAAFTRHLQHVIQLELFS
modifications: selenomethionine-labeled protein for the EilR-eilO crystal structure
notes: 21.6 kDa monomer; also called EilR repressor; EilR-His8 (before cleavage of the tag); source: E. coli harboring pLane-eilR, purified (His-Trap, TEV cleavage, second His-Trap flowthrough)
  stoichiometry N: 2
